3 molecules from article PMC7431413 (2020) can be followed below.

B3: core fragment (CF) of STAT3, biotinylated (domain or fragment)
chain: GQANHPTAAVVTEKQQMLEQHLQDVRKRVQDLEQKMKVVENLQDDFDFNYKTLKSQGDMQDLNGNNQSVTRQKMQQLEQMLTALDQMRRSIVSELAGLLSAMEYVQKTLTDEELADWKRRQQIACIGGPPNICLDRLENWITSLAESQLQTRQQIKKLEELQQKVSYKGDPIVQHRPMLEERIVELFRNLMKSAFVVERQPCMPMHPDRPLVIKTGVQFTTKVRLLVKFPELNYQLKIKVCIDKDSGDVAALRGSRKFNILGTNTKVMNMEESNNGSLSAEFKHLTLREQRCGNGGRANCDASLIVTEELHLITFETEVYHQGLKIDLETHSLPVVVISNICQMPNAWASILWYNMLTNNPKNVNFFTKPPIGTWDQVAEVLSWQFSSTTKRGLSIEQLTTLAEKLLGPGVNYSGCQITWAKFCKENMAGKGFSFWVWLDNIIDLVKKYILALWNEGYIMGFISKERERAILSTKPPGTFLLRFSESSKEGGVTFTWVEKDISGKTQIQSVEPYTKQQLNNMSFAEIIMGYKIMDATNILVSPLVYLYPDIPKEEAFGKYCRPESQEHPEADPGSAAPYLKTKFICVTPTTCSNTI
modifications: biotin on the Avi-tag

Targets include MS3-N1; MS3-N7; MS3-N5; MS3-2; MS3-8; MS3-5; MS3-1; MS3-4; MS3-7.
Common to all, as to experiment: FACS; yeast display
On the technique in general: In flow cytometry, cells or beads pass a laser one at a time.

Assay [1] deals with B3.

As usually defined, the Kd is a measure of binding affinity in units of concentration. Lower therefore signals higher affinity.

B1: N-terminal domain of STAT3, biotinylated (domain or fragment)
chain: QWNQLQQLDTRYLEQLHQLYSDSFPMELRQFLAPWIESQDWAYAASKESHATLVFHNLLGEIDQQYSRFLQESNVLYQHNLRRIKQFLQSRYLEKPMEIARIVARCLWEESRLLQTAATAAQQGGQANHPTAAVVT
modifications: biotin on the Avi-tag
As for B1, the Kd in the assay with MS3-N1 turned out to be 65 nM; with MS3-N7 it was 38 nM; in the assay with MS3-N5, 39 nM.

B2: monobody MS3-6, displayed on yeast cells (designed binder)
chain: VSSVPTKLEVVAATPTSLLISWDAPAVTVDFYHITYGETGGNSPVQEFTVPGSKSTATISGLKPGVDYTITVYAYVSYPEYYFPSPISINYRT
For the molecule B2, in assay [1], binding was put at a Kd of 8 nM.
As to B3, the Kd in the assay with MS3-2 stood at 104 nM; with MS3-8, 235 nM; with MS3-5, 88 nM; with MS3-1 it was 127 nM; in the assay with MS3-4, 18 nM; with MS3-7, 135 nM.
